Consider 2 molecules from article PMC10776578, “Epstein-Barr virus-driven B cell lymphoma mediated by a direct LMP1-TRAF6 complex” (Nature Communications, 2024).

The subject of assay [1] is GST-RANK314-355. The assay can be described thus: AlphaScreen PPI, TRAF6 mutants binding to RANK. The following applies: for effect of TRAF6 mutation on binding to RANK (in words): AlphaScreen PPI; for TRAF6 binding to RANK (AlphaScreen), mean / TRAF6 binding to RANK (AlphaScreen): Figure 2c; for TRAF6 binding to RANK (AlphaScreen), mean: mean of n = 4. Also on record: species or system human. Here is the method: Fig. 2 LMP1 binds to the receptor-interacting surface of TRAF6. a Mutations within the receptor-interacting surface of TRAF6 affect binding to LMP1. The TRAF6 mutants R392A, K469A, F471A, and Y473A were tested LMP1 in AlphaScreen PPI experiments with GST-LMP1_181-386. Data are mean values ± SD of three independent experiments. Statistics: one-way ANOVA. b TRAF6 R392A differentiates between CD40 and LMP1/RANK. AlphaScreen PPI experiments with GST-CD40_216-277. Data are mean values ± SD of three independent experiments. […] AlphaScreen PPI experiments with GST-RANK314-355. Data are mean values ± SD of four independent experiments. Statistics: one-way ANOVA. d TRAF6 mutants that fail to interact with LMP1 in PPI assays are also unable to bind cellular LMP1. HEK293 cells were co-transfected with HA-LMP1 and the indicated Flag-TRAF6 mutants. Flag-TRAF6 was immunoprecipitated (IP) via its Flag-tag and coprecipitated HA-LMP1 was detected on immunoblots by an α-HA antibody. Uncropped blots in Supplementary Fig. 6b. For statistical analysis LMP1 signals were digitalized and quantified (graph). Data are mean values ± SD of three independent experiments. […] TRAF6 recruitment is dependent on amino acids 371 − 386 of LMP1 (small panel). Confocal microscopy images show representative cells of three independent experiments. Quantitative data are mean values ± SD of ten randomly selected cells per transfection of one representative experiment (graph). Scale bars: 10 µm. Statistics: one-way ANOVA. p-values: *p ≤ 0.05, **p ≤ 0.01, ***p ≤ 0.001, ****p ≤ 0.0001. Source data and exact p-values in the Source Data file.
AlphaScreen experiments were performed in 96- or 384-well plates (Perkin Elmer, OptiPlate). In both assay formats, His-TRAF and GST-LMP1, GST-CD40, or GST-RANK proteins were incubated together in 40 µL of PBS (protein concentrations were calculated to the final reaction volume of 60 µL) supplemented with 0.5% BSA (Sigma, #A7030) and 0.1% Tween-20 (AppliChem, #A4974), for 1 h at room temperature (RT). If not indicated otherwise, standard protein concentrations were 300 nM for His-TRAF proteins and 100 nM for GST-LMP1 proteins. Ni-NTA-acceptor (Perkin Elmer, #6760619 C) and GST-acceptor (Perkin Elmer, # 6765300) beads were added each to a final concentration of 1–4 µg per mL in a final reaction volume of 60 µL and incubated for 1 h at RT in the dark. AlphaScreen PPI signals were measured in a CLARIOstar reader (BMG Labtech GmbH).
On the technique in general: Alpha assays give light when donor and acceptor beads are brought close together.

Assay [2] concerns GST-RANK314-355. The assay can be described thus: AlphaScreen PPI, TRAF6 mutants binding to RANK. Details: species or system human.

Substitutions are numbered along the chain they refer to. Names may count otherwise. “Also recorded” adds a separate entry of the source.

B1: R392A (protein, UniProt Q9Y4K3 1-522, looked up, variant R392A)
TNF receptor-associated …: MSLLNCENSCGSSQSESDCCVAMASSCSAVTKDDSVGGTASTGNLSSSFMEEIQGYDVEFDPPLESKYECPICLMALREAVQTPCGHRFCKACIIKSIRDAGHKCPVDNEILLENQLFPDNFAKREILSLMVKCPNEGCLHKMELRHLEDHQAHCEFALMDCPQCQRPFQKFHINIHILKDCPRRQVSCDNCAASMAFEDKEIHDQNCPLANVICEYCNTILIREQMPNHYDLDCPTAPIPCTFSTFGCHEKMQRNHLARHLQENTQSHMRMLAQAVHSLSVIPDSGYISEVRNFQETIHQLEGRLVRQDHQIRELTAKMETQSMYVSELKRTIRTLEDKVAEIEAQQCNGIYIWKIGNFGMHLKCQEEEKPVVIHSPGFYTGKPGYKLCMALHLQLPTAQRCANYISLFVHTMQGEYDSHLPWPFQGTIRLTILDQSEAPVRQNHEEIMDAKPELLAFQRPTIPRNPKGFGYVTFMHLEALRQRTFIKDDTLLVRCEVSTRFDMGSLRREGFQPRSTDAGV
Consider B1, for which the “effect of TRAF6 mutation on binding to RANK (in words)” value was “do not bind to RANK; also recorded: prevented the interaction of TRAF6 with LMP1 and RANK” in the assay with GST-RANK314-355 [1]; “do not interact” in the assay on GST-RANK314-355 [2] (listed as TRAF6 R392A). The “TRAF6 binding to RANK (AlphaScreen), mean” value in the assay on GST-RANK314-355 [1] is 0.1. The “TRAF6 binding to RANK (AlphaScreen)” value with GST-RANK314-355 [1] (replicate 1), in the assay with GST-RANK314-355 [1] (replicate 2), in the assay with GST-RANK314-355 [1] (replicate 3) and in the assay with GST-RANK314-355 [1] (replicate 4) was 0.1 each time.

B2: F471A (protein, UniProt Q9Y4K3 1-522, looked up, variant F471A)
TNF receptor-associated …: B1 TNF receptor-associated … with A392R, F471A
Regarding B2, the “effect of TRAF6 mutation on binding to RANK (in words)” value with GST-RANK314-355 [1] is listed as “do not interact”; in the assay with GST-RANK314-355 [2] (listed as Y471A), “abolished the interaction of TRAF6 with RANK; also recorded: do not bind to RANK”. Moreover, in the assay on GST-RANK314-355 [1], the “TRAF6 binding to RANK (AlphaScreen), mean” value was 0.725. Also, the “TRAF6 binding to RANK (AlphaScreen)” value in the assay on GST-RANK314-355 [1] (replicate 1) turned out to be 0.2; in the assay with GST-RANK314-355 [1] (replicate 2), 0.4; in the assay on GST-RANK314-355 [1] (replicate 3), 0.2; with GST-RANK314-355 [1] (replicate 4), 2.1.
